Experimental data from PMC4971505 (2016).

Legend:
[1] = target: M3 muscarinic acetylcholine receptor (Homo sapiens, UniProt P20309); experiment: 3H-NMS radioligand pseudocompetition binding (allosteric model)
[2] = target: T1, M1 muscarinic acetylcholine receptor (Homo sapiens, UniProt P11229); experiment: as above
T1 chain: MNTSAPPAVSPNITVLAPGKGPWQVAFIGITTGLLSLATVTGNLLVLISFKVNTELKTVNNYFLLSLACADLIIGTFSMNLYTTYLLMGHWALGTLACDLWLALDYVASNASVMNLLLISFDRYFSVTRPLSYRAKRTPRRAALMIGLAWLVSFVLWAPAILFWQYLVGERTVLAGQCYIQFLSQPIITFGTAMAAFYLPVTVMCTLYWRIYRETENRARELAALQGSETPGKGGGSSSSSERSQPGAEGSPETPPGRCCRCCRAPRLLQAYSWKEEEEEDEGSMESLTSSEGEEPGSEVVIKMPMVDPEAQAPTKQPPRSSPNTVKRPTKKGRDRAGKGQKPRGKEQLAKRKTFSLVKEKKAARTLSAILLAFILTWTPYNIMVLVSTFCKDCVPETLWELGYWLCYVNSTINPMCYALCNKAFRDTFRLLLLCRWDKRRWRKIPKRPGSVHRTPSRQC

Sequence of M3 muscarinic acetylcholine receptor (P20309 whole entry): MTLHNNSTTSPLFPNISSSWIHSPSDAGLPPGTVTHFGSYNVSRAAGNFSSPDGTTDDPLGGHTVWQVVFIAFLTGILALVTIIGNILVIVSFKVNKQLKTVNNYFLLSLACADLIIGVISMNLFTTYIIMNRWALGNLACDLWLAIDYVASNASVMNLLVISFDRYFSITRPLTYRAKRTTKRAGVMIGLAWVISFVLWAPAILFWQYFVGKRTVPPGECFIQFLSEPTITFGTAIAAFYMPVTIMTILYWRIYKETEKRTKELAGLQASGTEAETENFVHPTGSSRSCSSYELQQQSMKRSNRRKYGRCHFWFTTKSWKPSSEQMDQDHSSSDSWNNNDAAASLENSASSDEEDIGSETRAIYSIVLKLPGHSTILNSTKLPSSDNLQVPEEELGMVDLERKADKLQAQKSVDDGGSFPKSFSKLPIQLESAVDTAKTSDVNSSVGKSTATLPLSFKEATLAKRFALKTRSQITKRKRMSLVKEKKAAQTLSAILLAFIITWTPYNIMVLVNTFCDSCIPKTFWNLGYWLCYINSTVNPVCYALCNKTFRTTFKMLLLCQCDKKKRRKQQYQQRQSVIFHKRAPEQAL

B1: SLURP-2 (protein)
chain: IWCHQCTGFGGCSHGSRCLRDSTHCVTTATRVLSNTEDLPLVTKMCHIGCPDIPSLGLGPYVSIACCQTSLCNHD
[1]
  Kd: 144 nM
[2]
  Kd: 231 nM
